Source: the nanobody polyreactivity screen of Harvey et al. (2022)

Test: yeast display, Sf9 membrane polyspecificity reagent, FACS + sequencing; frameworks hold sequencing errors
Summary of the method: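 Synthetic nanobody libraries on Saccharomyces cerevisiae BJ5465 were galactose-induced for 36–48 hours, stained 1 hour at 4 °C with 10% biotinylated, detergent-solubilized Sf9 membrane reagent and enriched on streptavidin microbeads. FACS then separated cells into low and high (top ~1%) gates by anti-HA (expression) and streptavidin (reagent binding) fluorescence. Genes were colony-PCR amplified, MiSeq 2 × 250 sequenced and CDR-length filtered. A clone's polyreactivity label is that of its gate of origin.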

| Sequence | polyreactivity (PSR sort gate) |
| --- | --- |
| QVQLVESGGGLVQAGGSLRLSCAAYGRTFTTNAMGWYRQAPGKERELVAAISRLGGSTYYADSVKGRFTISRDNAKNTVYLQMNSLKPEDTAVYYCYAHLWIRGYDYWGQGTQVTVSS | high polyreactivity |
| QVQLVESGGGLVQAGGSLRLSCAASGLTFSYYTMGCYRQAPGKERELVARISNRGTNTYYADSVKGRFTISRDNAKNTVYLQMNSLKPEDTAVYYCAKYYYTSIVGYDSWGQGTQVTVSS | low polyreactivity |
| QVQLVESGGGLVQAGGSLRLSCAASGLIFGRNAMGWYRQAPGKERELVAAITSGGSTYYADSVKGRFTISRDNAKNTVYLQMNSLKPEDTAVYYCFVDYYPYDYWGQGTQVTVSS | low polyreactivity |
| QVQHEESGRALVQAGGSLRLSCPPSGTTGIYAIGWYRQAPGKERELVAAITRRAGSTYYADSVKGRFTISRDNAKNRVYLLMTSLKPEDTAVYDCNATRGTATAYYYRWAGGYWGQGTQVTVSS | low polyreactivity |
| QVQLVESGGGVVQAGGSLRLSCAASGFTFAQYAMGWYRQAPGKERELVATITRGGITYYADSVKGRFTISRDNAKNTVYLQMNSLKPEDTAVYYCAARVVPPYSRRDDYWGQGTQVTVSS | high polyreactivity |
| QVQLVESRGGLVQAGGSLRLSCAASGSIFPYNAMGWYRQAPGKEREFVAAINLSGGSTNYADSVKGRFTISRDNAKNTVYLQMNSLKPEDTAVYYCNAPVDYFWPLNFDYWGQGTQVTVSS | low polyreactivity |
| QVQLQECGGGLVQAGGSLRLSCAASGNIFDADIMGWYRQAPGKERELVASVSDGGSTNYADSVKGRFTISRDNAKNTVYLQMNSLKPEDTAVYYCAAIVYPDILTYFDYDYDYFYWGQGTQVTVGS | low polyreactivity |
| QVQLVESGGGLVQAGGSLRLSCAASGITFQYYAMGWYRQAPGKERELVAAITSSGVSTYYADSVKGRFTISRDNAKNTVYLQMNSLKPEDTAVYYCNTVVRGWSSSAYDDWGQGTQVTVSS | low polyreactivity |
| QVQLVESGGGLVQAGGSLRLSCAASGRTFRPYAMGWYRQAPGKERELVAAISSRGSSTYYADSVKGRFTISRDNAKNTVYLQMNSLKPEDTAVYYCAARSYWGGLRYDYWGQGTQVTVSS | high polyreactivity |
| QVQLVESGGGLVQAGGSLRLSCAASGRTFLAMGWYRQAPGKERELVAAISRTNYADSVKGRFTISRDNAKNTVYLQMNSLKPEDTAVYYCAKEYYSYEVYLGLSYVRRYDYWGQGTQVTVSS | low polyreactivity |
| QVQLVESGGGIVQAGGSLRLSCAASGSIFPDNAMGWYRQAPGKERELVAAIDKGTGSTNYADSVKGRFTISRDNAKNTVYLQMNSLKPEDTAVYYDYWGQGTQVSVSS | low polyreactivity |
| QVQLVESGGGLVQAGGSLRLSCAASGLTFNYYAMGWYRQPPGKESELVAAITSSGGRTYYADSVKGRFTISRDNAKNTGYLQMNSLKPEDTAVYYCNTVSYRLGAVWFSYDYWGQGTQVTVSS | high polyreactivity |
| QVQLVESGGGLVQAGGSLRLSSAASGFIFIIYAMGWYRPAPGKERELVAGIRWSGGSTYYADSVKGRFTISRDNAKNTVYLQMNSLKPEDTAVYYCNKDRGSLTLYTYDYWGQGTQVTVSS | low polyreactivity |
| QVQLVESGGGLVQAGGSLRLSCAASGFIFRGYAMGLYRQAPGKERELVAAISKSGGSTYYADSVKGRFTISRDNAKNTVYLQMNSLKPEDTAVYYCATDILIDGFYYDYWGQGTQVTVSS | high polyreactivity |
| QVQLVESGGGLVQAGGSLRLSCAASGSTFYFNAMGWYRQAPGKERELVAGIRYSGSSTYYADSVKGRFTISRDNAKNTVYLQMNSLKPEDTAVYYCAARYSVYPRVSKYSYRFNYWGQGTQVTVSS | high polyreactivity |
| QVQHVESGGGLVQAGGSLRLSCAASGSILDGNTMGWYRQSPGKARELVAALTWDCTSTYYADSVKGRFTISRDNAKNSVYLQMNSLKPEDTAVYYCAATKGYSDPSTLYYAYIHYDYWGQGTQVTVSW | low polyreactivity |
| QVQHVESGGGLVQAGGSLRLSCAASGSIFNYYAMGWYRQAPGKERELVAAISKTGGSTYYADSVKGRFTISRDNAKNTVYLQMNSLKPEDTAVYYCNAVYASVSPTPYGYWGQGTQVTVSS | high polyreactivity |
| QVQLVESGGGLVQAGGSLRLSCAASGRTFSWNAMGWYRQAPGKERELVAAISNSGGSTYYADSVKGRFTISRHNAKNPVYLQMNSLKPEDTAVYYCAADDIYKYYQYYAFPYYRYDYWGQGTQVTVSS | low polyreactivity |
| QVQLVQSGGGLVQAGGSLRLSYAASGRIFSPNAMGWYRQAPGKERELVAAISYRGANTYYADSVKGRFTISRDNAKNTVDLQMHSLKPEDTAVYYCATRSTHYWGQGTQVTVSS | high polyreactivity |
| QVQLVESGGGLVQARGSLRLSCAASGRTFDLYAMGWYRQSPGKERELVAAITKGGGSTYYADSVKGRFTISRDNAKNTVYLQMNSLKPEDTAVYYCAARKYKRIYRISSGIGYYWGQGTQVTVSS | high polyreactivity |
| QVQLVESGGRLVQAGGSLRLSCAPSGFMFADYMGWYRQAPGKERALVASISSTGSSTYADSVKGRFTITRDNAKNTVYLPMNSLKPEDTAVYDCAATGVWYSSNDYASEYDYWGQGTQVTVSS | high polyreactivity |

| Sequence | polyreactivity (PSR sort gate) |
| --- | --- |
| QVQLVESGGGLVEAGGSLRLSCADSGRTFGSYTMGWYRQAPGKEREWVAAITSGGRTNYADSVKGRFTISRDNAKNTVYLQMNSLKPEDTAVYYCAPGWRGGRYRYFAYDYWGQGTQVTVSS | high polyreactivity |
| QVQLVESGGGLVQAGGSLRLSCAASGFTFSYYAMGWYRQAPGKERELVAGITTGGGTNYADSVKGRFTISRDNAKNTVYLQMNSLKPEDTAVFYCNADYWYKYDYWGQGTQVTVSS | low polyreactivity |
| QVQLVESGGGLVQAGGSLRLSCAASGRTFSTNAMGWYRQAPGKERELVAAITSRGGSTYYADSVKGRFTISRDNAKNTVYLQMNSLKPEDPAVYYCAVDPLYYKTHYGTLGYYYLGQGTQVTVSS | low polyreactivity |
| QVQLVESGGGLVQAGGSLRLSCAASGFIFAGTAMGWYRQAPGKEWELVAAITRSGTNTYYADSVKGRFTISRDHAKNTVFLQMNSLKPEDTAVYYCNATVRYRYPYGYWGQGTQVTVSS | high polyreactivity |
| QVQLVESGGGLVQAGGSLRLSSAASGSIFSIYAMGWYRQAPGKERELGAAITWSGGSTYYADSVKGRFTISRDNAKNTVYFQMNSLKPEDTAVYYCAAEIWFYYGGRKQRGGYWGQGTQVTVSS | high polyreactivity |
| QVQLVESGGGLVHAGGSLRLSCAASGSTFARYAMGWYRPAPGKERELVAVIRSGGSTNYADSVKGRFTISRDNAKNTVYLQMNSLKPEDTAGAADQWTIHRWATYGYWGQGTQVTVSS | low polyreactivity |
| QVQLVESGGGLVQAGGTLRLRCAASGSTFFPYAIGWYRPAPGKEWELVAAITSGGRTHYADSVKGRFTISRDNAKNTVYLQMMSLIPEDSAVYYCAAVVPRHLLTYRMDYWGQGNQVTVSS | high polyreactivity |
| QVQLVESGGGLVQAGGSLRLSCAASGFTFYYNAMGWYRQAPGKERELVAAISWTGGSTRYADSVKGRFTISRDNAKNTVYLQMNSLKPEDTAVYYCAARGYNYWGQGTQVTVSS | high polyreactivity |
| QVQLVESGGGLVQAGGSLRLSCAASGFTYRVNAMGWYRQATGKERELVAAITVSDGRTYYADSVKGRFTISRDNAKNTVYLQMNSLKPEDTAVYYCAADYKGAFTTDWSSEYEYWGQGTQVTVSS | low polyreactivity |
| HVQLQETGGGLVQAGGCLSCTASGTIFGQGDMGWYRPAPGKERELVATINDGASTYYADSVKGRFTISRDKAKNTVYLQKNSLKPDDTAVNYCAVFTDITTYFGYWGQGTQVTVSS | low polyreactivity |
| QVQLVESGGGLVQAGGSLRLICAASGITFYYYAMGWYRQAPGKERELVAAISTRSGSTYYADSVKGRFTISRDNAKNTVYLEMNSLKPEDTAVYYCAARYRSAGHRYDYWGQGTQVTVSS | high polyreactivity |
| QVQLVESGGGLVQAGGSLRLSCAASGRTFIPYAMGWYRQAPGKERELVAAITSSGGRTYYADSVKGRFTISRDNAKNTVYLQMNSLKPEDTAVYYCNKYARGYDMDYWGQGTQVTVSS | high polyreactivity |
| QVQLVESGGGLVQAGGSLRLSCAASGITFRSYAMGWYRQAPGKERELVAAITSGASTNYADSVKGRFTISRDNAKNTVYLQMNSLKPEDTAVYYCAATYHTWRGQYLWYDYWGQGTQVTVSS | low polyreactivity |
| QVQLVESGGGLVQAGGSLRLSCAASGSIFTPYAMGWYRQAPGKEWELVAAISWRGCNTYYADSVKGRFTISRDNAKNTVYLQMNSLKPEDTAVYYCAAEQNYVYETGSYDYWGQGTQVTVSS | low polyreactivity |
| QVQLVEAGGGLVQAGGSLRLSCAASGSTLVYNDMGWYRQAPGKEREFVAAIRSNDGSTYYADSVKGRFTISRDNAKNTVYLQMNSLKPEDTAVYFCNKDVWDGYDWPEFDYWGQGTQVTVSS | low polyreactivity |
| QVHLVESGGGLVQAGGSLRLSCPASGRIFYYYTMGCYRQAPGKERELVAAITSGGSTYYADSVKGRFTISRDNAKNTVYLQMYSLKQEDTAVYYCIAEFDEKYDYWGQGTQVTVSS | low polyreactivity |
| QVQLVESGGVLVQAGGSLRLSCAASGRTFWYNAMGWYRQAPGKEWELVAAISSTGGRTYYADSVKGRFTISRDNAKTTVYLQMNSLKPEDTAVYYCAARQLSSHYDYWGQGTQVTVSS | low polyreactivity |
| QVQLVESGGGLVQAGGSLRFSSAASGSIFQSYPMGLYRPAPGKERELVAAITRSGGRTYYADSVKGRFTISRDNAKNTVYLQMNSLKPEDTAVYYCAAFGWGYGYWGQGTQVTVSS | high polyreactivity |
| QVQLVESGGGLVQAGGSLRLSCAASGSIFIYYAMGWYRQAPGKERELVASISSSGSRTYYADSVKGRFTISRDNAKNTVYLQMNSLKPEETAVYYCAARYAIPRNYPQYNYWGQGTQVTVSS | high polyreactivity |
| QVQLVESGGGLVQAGGSLRLSCAASGIILYGYDMGWYRQAPGKERELVAAISSSGGSTYYADSVKGRFTISRDNAKNTVYLQMNSLKPEDTAVYYCAASKRYYGQLLTGGYYGYYYCGQGTQVTVSS | high polyreactivity |
